Assay results taken from US20030148264A1, “Phage displayed PDZ domain ligands” (GENENTECH, INC., priority 2001, published 2003).

How the values were obtained:
ERBIN PDZ domain [1] = target: T1, ERBIN PDZ domain (Homo sapiens, UniProt Q96RT1); experiment: GST-PDZ co-precipitation of proteins from transfected HEK 293 cell extracts; type: binding; parameters: made in house; host or cells: E. coli; conditions: extracts from transfected HEK 293 cells; FIG. 6
Procedure: (§1) HEK 293 (293) cells grown in high glucose Dulbeco's Modified Eagle Medium (DMEM), 10% fetal calf serum, 1× non-essential amino acid supplement, 1×L-glutamine supplement, 10 mM HEPES (pH 7.4) and penicillin/streptomycin (all from Life Technologies) to ˜80% confluence were transfected with 2 μg DNA/35 mm diameter well (for example, DNAs encoding the sequences described in EXAMPLE 5.0) using Fugene reagent (Roche Biochemical). 24 hours post-transfection, cells were washed once with PBS and then scraped into 1 ml/well of 20 mM Tris (pH 7.5), 1% Triton X-100, 200 mM NaCl, 1 mM dithiothreitol, and protease inhibitor cocktail with EDTA (Roche Biochemical, catalog #1836145) and homogenized gently with three to five strokes in a dounce (Wheaton) using a loose glass pestle. Extracts were centrifuged at 12,000 rpm in a tabletop centrifuge at 4° C. for 10 minutes; the supernatant was combined with an equal volume of homogenization buffer without NaCl to achieve a final salt concentration of 100 mM and frozen at −70° C. until use. […] Binding of 293 cell-expressed proteins was detected by immunoblot analysis using antibodies against GFP (Clontech) and Her 2 (Santa Cruz Biotechnology).
(§2) Amino acids 1217-1371 of ERBIN and 584-707 corresponding to PDZ 2 of MAGI-3 (Sidhu et al., 2000); were expressed in E. coli as GST fusions. […] Equal volumes of extract and depleted extract (sup.) were analyzed.
Target sequence in this assay (Q96RT1 1258-1412): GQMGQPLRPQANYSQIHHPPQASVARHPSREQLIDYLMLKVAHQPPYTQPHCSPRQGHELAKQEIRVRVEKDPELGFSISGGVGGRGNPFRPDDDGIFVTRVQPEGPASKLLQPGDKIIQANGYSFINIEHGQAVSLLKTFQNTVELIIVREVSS

ERBIN PDZ domain [2] = target: T1, ERBIN PDZ domain; experiment: Co-localization of ERBIN PDZ and δ-catenin in transfected HEK 293 cells; type: cell-based; parameters: expressed in transfected cells; host or cells: HEK 293; conditions: co-transfected HEK 293 cells; FIG. 7
Procedure: HEK 293 cells were grown to 70% confluence on collagen IV coated coverslips and then transfected with 1.4 μg of GST-ERBIN PDZ in pcDNA 3.1/V5/His and 1.1 μg of the indicated EGFP construct. 24 to 48 hours post-transfection, the cells were washed in PBS, fixed for 30 minutes in 2.5% formaldehyde, permeabilized with 0.25% Triton X-100 in PBS, and blocked with 5% donkey serum in PBS. The ERBIN PDZ domain was visualized by staining with monoclonal anti-V5 antibody (Invitrogen) and Cy3-conjugated secondary antibodies (Jackson Immunolabs) whereas GFP fusions were visualized directly. Images were taken on a standard fluorescence microscope using a 40× objective and digital CCD camera and SPOT imaging software (Diagnostic Instruments, Inc.; Sterling Heights, Mich.).
The ERBIN PDZ domain was co-transfected into HEK 293 E cells with EGFP, human δ-catenin or human δ-catenin missing the six C-terminal amino acids (FIG. 7).
Target sequence in this assay (Q96RT1 1314-1412): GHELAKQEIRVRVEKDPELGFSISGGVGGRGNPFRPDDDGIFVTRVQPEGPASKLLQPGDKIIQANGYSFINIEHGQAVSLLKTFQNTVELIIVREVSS

PDZ 2 of MAGI-3 = target: T2, PDZ 2 of MAGI-3 (Homo sapiens, UniProt Q5TCQ9); experiment: GST-PDZ co-precipitation of proteins from transfected HEK 293 cell extracts; type: binding; conditions: extracts from transfected HEK 293 cells; FIG. 6
T2 construct: made in house; host or cells: E. coli
T2 sequence (Q5TCQ9 584-707 isoform Q5TCQ9-2): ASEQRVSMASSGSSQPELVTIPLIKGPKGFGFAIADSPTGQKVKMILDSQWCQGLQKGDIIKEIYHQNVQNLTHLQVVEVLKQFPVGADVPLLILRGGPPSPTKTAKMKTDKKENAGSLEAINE
Procedure: as §1, §2

B1: δ-catenin: member of the Armadillo family, expressed as EGFP fusion in HEK 293 cells; candidate ERBIN PDZ ligand (protein)
chain: MFARKPPGAAPLGAMPVPDQPSSASEKTSSLSPGLNTSNGDGSETETTSAILASVKEQELQFERLTRELEAERQIVASQLERCKLGSETGSMSSMSSAEEQFQWQSQDGQKDIEDELTTGLELVDSCIRSLQESGILDPQDYSTGERPSLLSQSALQLNSKPEGSFQYPASYHSNQTLALGETTPSQLPARGTQARATGQSFSQGTTSRAGHLAGPEPAPPPPPPPREPFAPSLGSAFHLPDAPPAAAAAALYYSSSTLPAPPRGGSPLAAPQGGSPTKLQRGGSAPEGATYAAPRGSSPKQSPSRLAKSYSTSSPINIVVSSAGLSPIRVTSPPTVQSTISSSPIHQLSSTIGTYATLSPTKRLVHASEQYSKHSQELYATATLQRPGSLAAGSRASYSSQHGHLGPELRALQSPEHHIDPIYEDRVYQKPPMRSLSQSQGDPLPPAHTGTYRTSTAPSSPGVDSVPLQRTGSQHGPQNAAAATFQRASYAAGPASNYADPYRQLQYCPSVESPYSKSGPALPPEGTLARSPSIDSIQKDPREFGWRDPELPEVIQMLQHQFPSVQSNAAAYLQHLCFGDNKIKAEIRRQGGIQLLVDLLDHRMTEVHRSACGALRNLVYGKANDDNKIALKNCGGIPALVRLLRKTTDLEIRELVTGVLWNLSSCDALKMPIIQDALAVLTNAVIIPHSGWENSPLQDDRKIQLHSSQVLRNATGCLRNVSSAGEEARRRMRECDGLTDALLYVIQSALGSSEIDSKTVENCVCILRNLSYRLAAETSQGQHMGTDELDGLLCGEANGKDAESSGCWGKKKKKKKSQDQWDGVGPLPDCAEPPKGIQMLWHPSIVKPYLTLLSECSNPDTLEGAAGALQNLAAGSWKWSVYIRAAVRKEKGLPILVELLRIDNDRVVCAVATALRNMALDVRNKELIGKYAMRDLVHRLPGGNNSNNTASKAMSDDTVTAVCCTLHEVITKNMENAKALRDAGGIEKLVGISKSKGDKHSPKVVKAASQVLNSMWQYRDLRSLYKKDGWSQYHFVASSSTIERDRQRPYSSSRTPSISPVRVSPNNRSASAPASPREMISLKERKTDYECTGSNATYHGAKGEHTSRKDAMTAQNTGISTLYRNSYGAPAEDIKHNQVSAQPVPQEPSRKDYETYQPFQNSTRNYDESFFEDQVHHRPPASEYTMHLGLKSTGNYVDFYSAARPYSELNYETSHYPASPDSWV
modifications: left off: large carriers
notes: member of the Armadillo family, expressed as EGFP fusion in HEK 293 cells; candidate ERBIN PDZ ligand
Question: What does the source list for B1?
Answer: binding to / precipitation by GST-ERBIN PDZ (ERBIN PDZ domain [1]): binds strongly; co-localization with / recruitment of ERBIN PDZ domain (ERBIN PDZ domain [2]): complete recruitment of ERBIN PDZ to the cell junction; binding to / precipitation by GST-MAGI-3 PDZ 2 (PDZ 2 of MAGI-3): not to PDZ 2 of MAGI-3
